Measured values: the supplement of paper PMC9170038

Test system: MS2 coat protein
Assay: apparent KD of MS2 coat protein; designed switch direction (-1 OFF switch, 1 ON switch): -1; higher = weaker reporter binding
In short: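 Designed RNA switches with common flanks were made on Illumina chips by stalled E. coli RNA polymerase. Titration with SNAP-549-labelled MS2 coat protein doubled from 0.7 or 1.5 nM up to 3 µM. Apparent KD is each design's median over clusters after curve-fitting normalised fluorescence.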

[1] = Eterna round: R95, input ligand: microRNA oligo, concentration not stated
[2] = input ligand: microRNA oligo, concentration not stated

Sequence	apparent KD of MS2 coat protein (input ligand: FMN 200 uM)	apparent KD of MS2 coat protein (input ligand: none)	apparent KD of MS2 coat protein (Eterna round: R95, input ligand: FMN 200 uM)	apparent KD of MS2 coat protein [1]	apparent KD of MS2 coat protein (Eterna round: R95, input ligand: none)	apparent KD of MS2 coat protein [2]
GCCUUAUCCGUCAGGAUAUACAGCCGCUCCCUGUUGUAGAAGGGACAUGAGGAUCACCCAUGUACGUACCACUG [alecazam7] (Eterna round: R97, puzzle: Brourd's mod of Exclusion 4)	28.7 nM	22.6 nM				
GCGAAAGCAAACAAGUGAAACAUGAGGAUCACCCAUGUCCUCAUUUGCUCGUCUUAUAAGCUAUGCGAAAGCAUAGC [Sensor 3, v1 - 6] (puzzle: Sensor v3, turn-off variant 1)			38 nM	269 nM	41.6 nM	
GCGCACCUACCAAAAGGUAGGUCAACAUGAGGAUCACCCAUGUAGGAUAUCGAUUGCUUUGCAGUCGAGAAGGGCAUGAUGCGC [JL ENG3 3.80 Mod 14] (Eterna round: R96, puzzle: Exclusion NG 3)	59.1 nM	44.2 nM				36.6 nM
GCGCCAUCGUGAGAUGGCGUAAUUACAUGAGGAUCACCCAUGUAGGAUAUCGAUUGCUUUGCAGUCGAGAAGGGCAUGUUUUGU [JL ENG3 3.85] (Eterna round: R96, puzzle: Exclusion NG 3)	33.3 nM	31.5 nM				26.4 nM
GCGCGAAGCAAGGAUAUCCCAGGGAGCUCCCUGGGAGAAGGUGCCACAUGAGGAUCACCCAUGUGGUGAUCCUG [eternacac ex6r4 sub16] (Eterna round: R97, puzzle: Exclusion 6)	25.6 nM	17.7 nM				
GCGCUGCGAGGAUAUACAUGAGGAUCACCCAUGUGUCGGCAGCCAUGGUAGUACAAAUGUAGAAGGCGCGUAAA [EX3 #51] (Eterna round: R97, puzzle: Exclusion 3)	202 nM	165 nM				
GCGGACUAGUACGUGAGUACUGAGACAUGAGGAUCACCCAUGUAGGAUAUCGAUUCGAAACGAAUCGAGAAGGGCAUAGUCCGC [JL denovo 10] (Eterna round: R96, puzzle: Exclusion NG 3)	19.7 nM	21.2 nM				18.9 nM
GCGGACUGGAUCGUGAGAUCCGAGACAUGAGGAUCACCCAUGUAGGAUAUCGAUUGCUUUGCAGUCGAGAAGGGCGUGGUCCGC [JL denovo 16] (Eterna round: R96, puzzle: Exclusion NG 3)	54.6 nM	59.3 nM				44.9 nM
GCGGAGUGAGGAUAUAGAACUUAAGGUACCAAUUAGGUACCCUAGAAGGCACAUGAGGAUCACCCAUGUACCGC [Eli x4 4.01] (Eterna round: R97, puzzle: Exclusion 4)	26.5 nM	28.6 nM				
GCGGGAUAGCAAGGAUAUCCCGAGUCGCAAGGAAACAUCCACAUGAGGAUCACCCAUGUGGCUCUGGAGAAGGUGCGACGCAAA [Onveceanti] (Eterna round: R96, puzzle: Exclusion NG 2)	10.3 nM	13.4 nM				9.8 nM
GCGGGCUUUUUGCUCGUUUACAUGAGGAUCACCCAUGUGUCUUCGCGCCCGGGCCCGGGCGGGCCCGGGCCCGGGCG [-52.3, -76.4, A 8%] (Eterna round: R97, puzzle: Sensor, turn-off variant 1)	36.1 nM	41.5 nM				
GCGGGUUUUUUGUUCGUUUACAUGAGGAUCACCCAUGUGUCUUCGCGUUCGGGUUCGGGCGGGCUUGGGCUUGGGCG [-26.2, -50.6, A 8%] (Eterna round: R97, puzzle: Sensor, turn-off variant 1)	47.4 nM	47.8 nM				
GCGUGACAUGAGGAUCACCCAUGUGAGGAUAUCUGGACACUCUUUAUUUUAGAUGUCCAGAGAAGGCACAUGCU [Ex1-3: 5Z] (puzzle: Exclusion 1)				220 nM		
GCGUGGGCCGCAGGAUAUGAGGCCGUGGGUUCACCCAAACACACAUGAGGAUCACCCAUGUGUCAUCAGAAGGGCGAGCCUACU [Sozasora] (Eterna round: R96, puzzle: Exclusion NG 2)	18.9 nM	21.4 nM				17.5 nM
GCUAGACAUGUCAGGAUAUGCUGUACCUUGGUACAGCAGAAGGGACAUGAGGAUCACCCAUGUGCCUAUCUAGC [JL-BMX4-4.05] (Eterna round: R97, puzzle: Brourd's mod of Exclusion 4)	308 nM	43.6 nM				
GCUAGCCAUGUCAGGAUAUGCUGUACCUUGGUACAGCAGAAGGGACAUGAGGAUCACCCAUGUGCCUAGCUAGC [JL-BMX4-4.03] (Eterna round: R97, puzzle: Brourd's mod of Exclusion 4)	197 nM	27.1 nM				
GCUAGUCAUGUCAGGAUAUGCAGAACCUUGGUUCUGCAGAAGGGACAUGAGGAUCACCCAUGUGCCUAACUAGC [Mat - Exclusion 4 - JL Mod - D15] (Eterna round: R97, puzzle: Brourd's mod of Exclusion 4)	294 nM	40.3 nM				
GCUAGUCAUGUCAGGAUAUGCUGUACCUUGGUACAGCAGAAGGGACAUGAGGAUCACCCAUGUGCCUAGCUAGC [JL-BMX4-4.07] (Eterna round: R97, puzzle: Brourd's mod of Exclusion 4)	412 nM	37.7 nM				
GCUAUUAGAGGAUAUACAUGAGGAUCACCCAUGUGGUCAAGUCGGUGCCAACUGUUAGGUAGAAGGCUGGAGCC [Eternabot (L1) Solution 76] (Eterna round: R97, puzzle: Exclusion 3)	44.8 nM	49.7 nM				
GCUCGUGGGCAAGGAUAUCCUACGCUGUUCUGGUUCGUGUCUGUUACAUGAGGAUCACCCAUGUGGGAGAAGGUGCACCAGGGU [Design 50] (Eterna round: R96, puzzle: Exclusion NG 2)	22.8 nM	18.3 nM				12.3 nM
GCUCGUUUUGUCAGGAUAUUGAGUCAGCUUAAGCUCGAGAAGGGACAUGAGGAUCACCCAUGUACCGCACAAUU [BmEX4 B.29] (Eterna round: R97, puzzle: Brourd's mod of Exclusion 4)	16.3 nM	11.1 nM				
GCUGCAAGAGGAUAUACAUGAGGAUCACCCAUGUGGGAUCGCGUUCUGGAUCAGGACUGUAGAAGGUUUGUGCG [Eternabot (L1) Solution 63] (Eterna round: R97, puzzle: Exclusion 3)	286 nM	91.3 nM				
GCUGGACAAGGAUAUGCAAUCGUGCUUCGGCACGUAAGAUCACAUGAGGAUCACCCAUGUAGAAGGUGUCCAGC [E2/3-C2] (Eterna round: R97, puzzle: Exclusion 2)	62.5 nM	24 nM				
GCUGGACGAGGAUAUAUAUGACGUGCUUCGGCACGAAGAUCACAUGAGGAUCACCCAUGUAGAAGGUGUCCAGC [E2/8-B2] (Eterna round: R97, puzzle: Exclusion 2)	278 nM	54.1 nM				
GCUGGCUGAGGAUAUCUAUCCAUGAACAUGAGGAUCACCCAUGUAAACGUGGAGUGAGAUAGAGAAGGCGGGCAGA [EX5 A.13] (Eterna round: R97, puzzle: Exclusion 5)	13.6 nM	11.2 nM				
